Data on five molecules can be found in patent publication US20230076637A1 (AJOU UNIVERSITY INDUSTRY ACADEMIC COOPERATION FOUNDATION, published 2023).

The target of assay [1] is T1, CMVp495-503/HLA-A*02:01 complex (cytomegalovirus (CMV); human).
T1 construct: whole, on cells; also called CMV peptide-MHC-I complex
The assay can be described thus: flow cytometry, cancer cells pulsed with CMVp495-503 peptide, anti-mouse Fc secondary. A general note: Flow cytometry measures light scatter and fluorescence of single cells or particles in a stream.
Description: A negative control group not treated with peptide was added with DMSO. After 3 hours, centrifugation was performed at 1300 rpm for 3 minutes to remove the supernatant containing the peptide not bound to the cells, and the cells were washed with a FACS buffer and centrifuged at 1300 rpm for 3 minutes to remove the supernatant. […] After each sample was washed with 1 ml of a FACS buffer, a F(ab′)₂ antibody that specifically recognizes Alexa647 (red fluorescence)-conjugated mouse Fc was diluted 1:1200 in 100 μl of a FACS buffer, followed by reaction at 4° C. for 30 minutes. The cells were washed with 1 ml of a FACS buffer and then analyzed through flow cytometry.

Assay [2] deals with T2, HLA-A*02:01 expressed on the surface of cancer cells (human).
T2 construct: whole, on cells; also called cell-surface HLA-A*02:01; HLA-A2
Kind of assay: summary table, column MHC-1 display at 4 C.

For assay [3], the target named is T2, HLA-A*02:01 expressed on the surface of …. Kind of assay: flow cytometry, MDA-MB-231 cells (4 °C scheme of FIG. 9a), detection with C1-17.

Changes are numbered by the printed parent chain.

B1: H9#1 TCR-like antibody (antibody, mouse IgG2a, kappa, V domains shown)
VH: EVQLVQSGAEVKKPGSSVKVSCKASGGTFSSYAISWVRQAPGQGLEWMGGIIPIFGTANYAQKFQGRVTITADESTSTAYMELSSLRSEDTAVYYCARGDLYYYDSSGYPLWYMDYWGQGTLVTVSS
VL: ETTLTQSPGTLSLSPGERATLSCRASQSVSSSYLAWYQQKPGQAPRLVIYGASSRATGIPDRFSGSGSGTDFTLTISRLEPEDFAVYYCQDYSTYPAFTFGQGTKLEIRR
As for B1, in assay [1], the binding result was “binds”.

B2: C1-17 TCR-like antibody (antibody, mouse IgG2a, kappa, V domains shown)
VH: B1 VH with G50S, T57V, N59E, Q62H
VL: B1 VL with S54T, A56P
For B2, the binding result in assay [1] is “binds”.

B3: H9 TCR-like antibody (antibody, mouse IgG2a, kappa, V domains shown)
VH: B1 VH with L111R, W112Y, M114F
VL: B1 VL with D91H, Y95S, A97G
With B3, the binding result in assay [1] is reported as “binds”.

B4: inCT99†CMVp480-503 fusion antibody (antibody)
heavy: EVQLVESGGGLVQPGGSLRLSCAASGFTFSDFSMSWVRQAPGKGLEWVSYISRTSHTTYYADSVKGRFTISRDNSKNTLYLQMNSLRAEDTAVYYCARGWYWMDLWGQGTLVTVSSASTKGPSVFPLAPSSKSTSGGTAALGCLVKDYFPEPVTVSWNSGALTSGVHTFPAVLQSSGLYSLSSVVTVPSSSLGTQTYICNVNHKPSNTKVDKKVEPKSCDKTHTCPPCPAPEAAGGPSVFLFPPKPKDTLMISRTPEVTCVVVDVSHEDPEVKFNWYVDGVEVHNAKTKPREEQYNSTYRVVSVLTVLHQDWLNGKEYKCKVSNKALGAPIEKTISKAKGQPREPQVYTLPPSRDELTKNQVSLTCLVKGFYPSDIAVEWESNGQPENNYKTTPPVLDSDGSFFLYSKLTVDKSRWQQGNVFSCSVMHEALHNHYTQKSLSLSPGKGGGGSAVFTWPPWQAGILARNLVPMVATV
light: SDGVRQCRGDCFDGPLMGSSSNDIQMTQSPSSLSASVGDRVTITCKSSQSLLNSRDGKNYLAWYQQKPGKAPKLLIYDASNLETGVPSRFSGSGSGTDFTFTISSLQPEDIATYFCQQYWYWMYTFGGGTKVEIKRTVAAPSVFIFPPSDEQLKSGTASVVCLLNNFYPREAKVQWKVDNALQSGNSQESVTEQDSKDSTYSLSSTLTLSKADYEKHKVYACEVTHQGLSSPVTKSFNRGEC
As to B4, the binding result in assay [2] is on record as “binds”.

B5: inCT99†CMVp480-510 fusion antibody (antibody)
heavy: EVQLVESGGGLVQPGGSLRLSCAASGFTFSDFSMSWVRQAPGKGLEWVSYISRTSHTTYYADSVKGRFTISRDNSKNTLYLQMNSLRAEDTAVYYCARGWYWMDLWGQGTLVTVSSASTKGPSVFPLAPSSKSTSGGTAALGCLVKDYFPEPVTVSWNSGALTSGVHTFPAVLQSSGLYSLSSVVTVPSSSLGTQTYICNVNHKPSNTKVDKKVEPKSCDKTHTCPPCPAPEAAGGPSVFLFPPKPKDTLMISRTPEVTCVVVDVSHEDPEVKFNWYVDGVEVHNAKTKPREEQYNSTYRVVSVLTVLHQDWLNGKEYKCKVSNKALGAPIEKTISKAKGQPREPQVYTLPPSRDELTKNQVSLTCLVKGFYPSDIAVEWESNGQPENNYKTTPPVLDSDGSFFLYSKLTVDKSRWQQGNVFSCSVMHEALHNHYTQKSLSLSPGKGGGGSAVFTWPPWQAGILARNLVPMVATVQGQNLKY
light: B4 light
B5: in assay [3], the binding result is reported as “no binding”.
